Tested on: Escherichia coli TOP10
Experiment: shrunken log2 fold change of peptide-encoding DNA abundance (4.5 h post-induction vs induction); higher = less antimicrobial activity (less host growth inhibition)
Conditions: time post-induction: 4.5 h; library: site-saturation at positions 5, 18, 19, 20
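Further: peptides expressed intracellularly from a pBAD plasmid library in pooled LB shake-flask culture, induced with 0.3% L-arabinose, DNA abundance read by NGS, three biological replicates, DESeq2 with apeglm shrinkage.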

RRIRIRPPRLPRPRPRPIGFPRP
shrunken log2 fold change: 0.0766

RRIRMRPPRLPRPRPRPTSNPRP
shrunken log2 fold change: 0.00211

RRIRHRPPRLPRPRPRPMNGPRP
shrunken log2 fold change: -0.287

RRIRPRPPRLPRPRPRPAKNPRP
shrunken log2 fold change: 0.235

RRIRWRPPRLPRPRPRPNQMPRP
shrunken log2 fold change: -0.0159

RRIRGRPPRLPRPRPRPGMWPRP
shrunken log2 fold change: 0.78

RRIRTRPPRLPRPRPRPSFMPRP
shrunken log2 fold change: -0.412

RRIRQRPPRLPRPRPRPSSHPRP
shrunken log2 fold change: 0.0105

RRIRHRPPRLPRPRPRPCNLPRP
shrunken log2 fold change: -0.135

RRIRMRPPRLPRPRPRPLVKPRP
shrunken log2 fold change: -0.174

RRIRIRPPRLPRPRPRPMVQPRP
shrunken log2 fold change: -0.0334

RRIRRRPPRLPRPRPRPPERPRP
shrunken log2 fold change: 0.643

RRIRARPPRLPRPRPRPFERPRP
shrunken log2 fold change: -0.0075

RRIRDRPPRLPRPRPRPRNFPRP
shrunken log2 fold change: 0.0881

RRIRGRPPRLPRPRPRPDYIPRP
shrunken log2 fold change: -0.144

RRIRPRPPRLPRPRPRPKFVPRP
shrunken log2 fold change: -0.0877

RRIRWRPPRLPRPRPRPCEQPRP
shrunken log2 fold change: 0.263

RRIRDRPPRLPRPRPRPKHVPRP
shrunken log2 fold change: 0.139

RRIRGRPPRLPRPRPRPGDKPRP
shrunken log2 fold change: 0.425

RRIRERPPRLPRPRPRPHSGPRP
shrunken log2 fold change: -0.365

RRIRVRPPRLPRPRPRPWMHPRP
shrunken log2 fold change: -0.406

RRIRMRPPRLPRPRPRPGQGPRP
shrunken log2 fold change: 0.269

RRIRSRPPRLPRPRPRPKFMPRP
shrunken log2 fold change: -0.0581

RRIRPRPPRLPRPRPRPYAMPRP
shrunken log2 fold change: -0.265

RRIRRRPPRLPRPRPRPIMDPRP
shrunken log2 fold change: 0.01

RRIRHRPPRLPRPRPRPSLHPRP
shrunken log2 fold change: -0.652

RRIRFRPPRLPRPRPRPMKNPRP
shrunken log2 fold change: -0.0862

RRIRMRPPRLPRPRPRPMHFPRP
shrunken log2 fold change: -0.0157

RRIRTRPPRLPRPRPRPSPIPRP
shrunken log2 fold change: -0.733

RRIRKRPPRLPRPRPRPLGNPRP
shrunken log2 fold change: 0.094

RRIRTRPPRLPRPRPRPELFPRP
shrunken log2 fold change: 0.039

RRIRHRPPRLPRPRPRPKTAPRP
shrunken log2 fold change: 0.0497

RRIRHRPPRLPRPRPRPPCIPRP
shrunken log2 fold change: 0.00475

RRIRLRPPRLPRPRPRPMDRPRP
shrunken log2 fold change: -0.0152

RRIRKRPPRLPRPRPRPMKSPRP
shrunken log2 fold change: 0.37

RRIRWRPPRLPRPRPRPDPIPRP
shrunken log2 fold change: -0.242

RRIRYRPPRLPRPRPRPDGAPRP
shrunken log2 fold change: -0.0116

RRIRIRPPRLPRPRPRPKMKPRP
shrunken log2 fold change: -0.457

RRIRMRPPRLPRPRPRPQCGPRP
shrunken log2 fold change: 0.096

RRIRWRPPRLPRPRPRPRASPRP
shrunken log2 fold change: 0.852

RRIRLRPPRLPRPRPRPNVLPRP
shrunken log2 fold change: -0.304

RRIRERPPRLPRPRPRPDAWPRP
shrunken log2 fold change: 0.0128

RRIRKRPPRLPRPRPRPQFNPRP
shrunken log2 fold change: -0.281

RRIRFRPPRLPRPRPRPSLAPRP
shrunken log2 fold change: 0.119

RRIRIRPPRLPRPRPRPPHHPRP
shrunken log2 fold change: -0.242

RRIRPRPPRLPRPRPRPTAGPRP
shrunken log2 fold change: 0.252

RRIRKRPPRLPRPRPRPMVCPRP
shrunken log2 fold change: 0.00938

RRIRRRPPRLPRPRPRPEANPRP
shrunken log2 fold change: 0.78

RRIRDRPPRLPRPRPRPPNYPRP
shrunken log2 fold change: -0.147

RRIRCRPPRLPRPRPRPWSVPRP
shrunken log2 fold change: -0.34

RRIRFRPPRLPRPRPRPCCSPRP
shrunken log2 fold change: -0.139

RRIRGRPPRLPRPRPRPWAPPRP
shrunken log2 fold change: 0.452

RRIRERPPRLPRPRPRPRGRPRP
shrunken log2 fold change: 0.358

RRIRLRPPRLPRPRPRPPGYPRP
shrunken log2 fold change: -0.119

RRIRKRPPRLPRPRPRPRRLPRP
shrunken log2 fold change: 0.0159

RRIRERPPRLPRPRPRPGHTPRP
shrunken log2 fold change: -0.0164

RRIRGRPPRLPRPRPRPEPHPRP
shrunken log2 fold change: 1.09

RRIRGRPPRLPRPRPRPMFKPRP
shrunken log2 fold change: 0.0694

RRIRNRPPRLPRPRPRPATNPRP
shrunken log2 fold change: -0.0513

RRIRLRPPRLPRPRPRPDTDPRP
shrunken log2 fold change: 0.0475

RRIRHRPPRLPRPRPRPIYKPRP
shrunken log2 fold change: -0.393

RRIRYRPPRLPRPRPRPKFGPRP
shrunken log2 fold change: -0.000463

RRIRTRPPRLPRPRPRPDPDPRP
shrunken log2 fold change: -0.0398

RRIRPRPPRLPRPRPRPHAQPRP
shrunken log2 fold change: -0.119

RRIRLRPPRLPRPRPRPNAIPRP
shrunken log2 fold change: -0.385

RRIRNRPPRLPRPRPRPDHFPRP
shrunken log2 fold change: -0.0062

RRIRNRPPRLPRPRPRPFSDPRP
shrunken log2 fold change: -0.246

RRIRLRPPRLPRPRPRPDLWPRP
shrunken log2 fold change: 0.774

RRIRGRPPRLPRPRPRPGCWPRP
shrunken log2 fold change: 1.39

RRIRMRPPRLPRPRPRPAWPPRP
shrunken log2 fold change: 0.896

RRIRPRPPRLPRPRPRPRQAPRP
shrunken log2 fold change: 0.0176

RRIRLRPPRLPRPRPRPTAMPRP
shrunken log2 fold change: 0.0595

RRIRARPPRLPRPRPRPWWVPRP
shrunken log2 fold change: 0.066

RRIRNRPPRLPRPRPRPPFSPRP
shrunken log2 fold change: 0.032

RRIRCRPPRLPRPRPRPGLSPRP
shrunken log2 fold change: -0.248

RRIRSRPPRLPRPRPRPLAYPRP
shrunken log2 fold change: 0.0208

RRIRNRPPRLPRPRPRPLSSPRP
shrunken log2 fold change: -0.0989

RRIRWRPPRLPRPRPRPYHVPRP
shrunken log2 fold change: -0.141

RRIRLRPPRLPRPRPRPHDCPRP
shrunken log2 fold change: -0.0305

RRIRPRPPRLPRPRPRPVTAPRP
shrunken log2 fold change: 0.385

RRIRLRPPRLPRPRPRPYPLPRP
shrunken log2 fold change: -0.413

RRIRSRPPRLPRPRPRPTRLPRP
shrunken log2 fold change: 0.699

RRIRSRPPRLPRPRPRPNNGPRP
shrunken log2 fold change: -0.035

RRIRTRPPRLPRPRPRPRWYPRP
shrunken log2 fold change: -0.288

RRIRQRPPRLPRPRPRPASKPRP
shrunken log2 fold change: 0.0503

RRIRDRPPRLPRPRPRPVDMPRP
shrunken log2 fold change: 0.0154

RRIRNRPPRLPRPRPRPSYMPRP
shrunken log2 fold change: -1.71

RRIRPRPPRLPRPRPRPWRRPRP
shrunken log2 fold change: 0.142

RRIRWRPPRLPRPRPRPCNVPRP
shrunken log2 fold change: -0.00213

RRIRNRPPRLPRPRPRPKPAPRP
shrunken log2 fold change: 0.601

RRIRNRPPRLPRPRPRPSWAPRP
shrunken log2 fold change: -0.249

Source: the supplement of paper PMC9112550, “Optimization of the antimicrobial peptide Bac7 by deep mutational scanning” (BMC Biology, 2022)
